Source: patent publication CN112574297A

Target: H7N9病毒的神经氨酸酶(NA) (avian influenza virus H7N9)
Assay: cell-based or functional assay

B1: 抗禽流感H7N9神经氨酸酶抗原的单克隆抗体D3 (antibody, V domains shown)
VH: IQVKLQESGPELVKPGASVKISCKASGYSFTGYYMHWVKQSHVKSLQWIGRINPYNGATSYNQNFKDKASLTVDKSSSTAYMELHSLTSEDSAVYYCARSGNYAMDYWGQGTTVTVSS
VL: DIELTQSPASLAVSLGQRATISYRASKSVSTSGYSYMHWNQQKPGQPPRLLIYLVSNLESGVPARFSGSGSGTDFTLNIHPVEEEDAATYYCQHIRELTRSEGGPSSRSN
NA活性抑制IC50 (酶联凝集素法 ELLA): 5.22 µg/mL
